# Results reported in the supplement of paper PMC12855868.
# B1: library; numbered along this chain (parent)
# chain: MAAAGGARLLRAASAVLGGPAGRWLHHAGSRAGSSGLLRNRGPGGSAEASRSLSVSARARSSSEDKITVHFINRDGETLTTKGKVGDSLLDVVVENNLDIDGFGACEGTLACSTCHLIFEDHIYEKLDAITDEENDMLDLAYGLTDRSRLGCQICLTKSMDNMTVRVPETVADARQSIDVGKTS
# Variants of: B1
# Assay: scaled log2 fold change in cell abundance, elesclomol vs control (0 = silent mean, 1 = nonsense mean) (scaled log2 ratio); higher = higher viability under elesclomol (loss of FDX1 cuproptosis function)
# Conditions: glucose 10 mM
# Description: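 Deep mutational scan of full-length human FDX1: a pooled saturation-mutagenesis ORF library (every residue 2-184 mutated to all 19 amino acids plus stop, and silent codons where available) was expressed by lentivirus in FDX1-knockout ABC1 (14 days) or HEK293T (11 days) cells grown with elesclomol (ES) or DMSO control. Variant abundance came from ORF sequencing. The log2 fold change (ES vs control, mean of duplicates) was centred on the silent-variant mean (0) and scaled to the nonsense-variant mean (1). Higher values mean greater viability under ES, i.e. loss of FDX1 function in cuproptosis.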
# [1] = with ABC1 FDX1 KO, elesclomol 5 nM, 14 days
# [2] = with HEK293T FDX1 KO, elesclomol 40 nM, 11 days
# 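Note: variant abundance is its share of total variant reads in each endpoint sample, from next-generation sequencing of the integrated ORF PCR-amplified out of genomic DNA.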
Variant,scaled log2 fold change [1],scaled log2 fold change [2]
P43I,0.392,-0.356
P43Q,0.274,-0.32
P43V,0.149,0.888
P43F,-0.0201,0.822
P43L,0.34,1.08
P43M,0.182,0.0394
P43H,0.442,-0.548
P43N,0.14,1.24
P43R,0.273,0.259
P43G,0.283,0.825
P43W,-0.19,0.313
P43Y,0.138,0.846
P43S,-0.443,-0.3
P43K,0.0332,0.445
P43T,0.0182,-0.259
S52C,0.431,-0.0215
S52K,0.174,-1.31
S52R,0.143,-1.18
S52V,-0.785,-0.177
S52N,-0.0586,-0.095
S52P,-0.128,
S52T,-0.921,-0.112
S52Y,0.285,0.0679
S52G,0.447,-0.133

Variant,scaled log2 fold change [1],scaled log2 fold change [2]
S52F,0.556,
S52M,0.212,-0.953
S52L,0.253,-0.651
S52A,0.665,0.164
S52W,0.257,-0.162
S52D,0.202,0.946
S52H,-0.197,0.41
S52E,0.648,0.0946
S52I,-0.0467,-0.248
S52Q,0.212,1.17
A47C,0.788,1.53
A47T,0.83,0.802
A47V,0.764,0.63
A47P,0.733,0.555
A47R,0.994,1.12
A47E,0.691,0.694
A47F,0.852,1.03
A47S,0.89,0.276
A47Y,0.8,0.534
A47I,0.83,0.523
A47G,0.844,0.78
A47K,0.89,0.778
A47H,0.813,1.05
A47Q,0.722,0.93

Variant,scaled log2 fold change [1],scaled log2 fold change [2]
A47M,0.779,0.799
A47D,0.728,0.746
A47N,0.833,1.56
A47W,0.856,0.727
A47L,0.835,0.437
V55E,-0.307,
V55G,0.169,-0.106
V55L,-0.283,
V55D,-0.0142,
V55I,0.323,1.26
V55P,-0.481,1.06
V55T,0.178,-0.356
V55R,0.114,0.865
V55C,0.313,0.374
V55Y,0.0351,
V55K,-0.469,-0.443
V55Q,0.177,-0.526
V55H,0.0403,1.23
V55M,0.374,0.955
V55N,-0.28,0.815
V55W,0.0864,-0.549
V55F,0.0901,-0.339
V55S,0.162,-0.104
S46I,0.589,0.715

Variant,scaled log2 fold change [1],scaled log2 fold change [2]
S46D,0.694,0.458
S46V,0.489,0.421
S46H,0.263,1.09
S46Y,0.737,0.775
S46P,0.0875,0.866
S46C,0.738,0.494
S46L,0.572,0.692
S46T,0.617,0.182
S46R,0.93,0.639
S46A,0.558,0.128
S46G,0.864,0.651
S46E,0.844,0.526
S46Q,0.68,0.186
S46N,0.338,0.643
S46K,0.678,0.519
S46F,0.279,0.769
S46M,0.376,0.185
G44Y,0.198,-0.79
G44N,0.0836,-0.289
G44M,0.13,0.703
G44V,-0.00617,-0.478
G44R,0.286,0.0773
G44A,0.246,2.06
G44W,0.253,0.857

Variant,scaled log2 fold change [1],scaled log2 fold change [2]
G44Q,0.137,0.433
G44P,-0.094,0.309
G44F,-0.255,-0.00392
G44D,-0.0132,-0.461
G44H,-0.319,
G44I,0.034,0.323
G44L,-0.1,0.155
G44C,-0.366,0.858
G44E,0.197,1.12
G44K,0.187,-0.0828
G44S,0.141,-0.291
G44T,-0.238,0.0578
G45R,0.363,-0.475
G45I,-0.00298,-0.325
G45S,0.0305,-0.567
G45F,-0.17,-0.167
G45Y,0.16,0.922
G45L,0.411,-0.007
G45Q,0.0494,0.513
G45K,0.0509,-0.713
G45E,0.346,1.07
G45M,0.116,-0.315
G45W,0.411,0.942
G45T,0.167,-0.525

Variant,scaled log2 fold change [1],scaled log2 fold change [2]
G45A,0.315,-0.00746
G45D,-0.348,0.907
G45P,-0.0714,-0.0345
G45H,0.0762,0.865
G45V,0.149,-0.648
G45N,0.148,0.842
G45C,0.409,-0.145
E48Q,0.747,0.877
E48R,0.787,0.683
E48Y,0.494,1.46
E48S,0.616,0.679
E48V,0.47,0.255
E48P,0.619,0.304
E48I,0.367,0.905
E48T,0.74,-0.184
E48G,0.667,0.934
E48L,0.58,1.05
E48F,0.809,0.523
E48W,0.73,0.677
E48H,0.521,0.92
E48M,0.829,0.835
E48K,0.46,0.746
E48D,0.623,0.469
E48C,0.731,0.336

Variant,scaled log2 fold change [1],scaled log2 fold change [2]
E48A,0.411,0.683
E48N,0.628,1.08
A49F,0.00966,-0.0173
A49M,-0.695,-1.02
A49D,0.201,
A49N,-0.529,-0.853
A49P,0.382,0.203
A49C,0.313,-0.749
A49Y,0.29,-1.02
A49L,-1.05,-0.62
A49R,0.181,
A49S,0.123,1.82
A49H,0.394,0.441
A49W,0.372,-0.679
A49Q,0.504,0.944
A49E,0.155,
A49K,0.256,-0.293
A49T,0.0135,
A49G,-0.302,0.424
A49I,0.653,1.22
A49V,-0.0734,
S50K,-0.433,
S50P,-0.659,
S50G,0.758,

Variant,scaled log2 fold change [1],scaled log2 fold change [2]
S50M,-0.234,
S50E,0.344,0.116
S50T,0.208,
S50I,0.293,-1.28
S50L,-0.847,
S50A,-0.353,0.141
S50R,-0.0286,0.0212
S50H,0.126,0.0217
S50C,0.19,0.37
S50N,0.219,-0.357
S50D,-0.421,-0.999
S50Y,-0.231,0.499
S50W,-0.149,
S56D,-0.745,0.383
S56A,0.574,
S56C,-0.222,-0.162
S54M,-0.399,0.147
S54T,0.484,-0.46
S54I,0.459,
S54E,-0.297,0.751
S54P,0.151,-0.0299
S54A,0.19,-0.116
S54G,-0.1,-0.00382
S54K,-0.175,-1

Variant,scaled log2 fold change [1],scaled log2 fold change [2]
S54D,-0.0274,-0.0231
S54W,0.208,-0.341
S54Q,0.175,1.12
S54H,-0.807,
S54C,-0.019,-0.176
S54F,0.138,0.0641
S54L,-0.261,-0.248
S54R,0.322,-0.406
S54N,-0.135,-0.939
S54Y,-0.0125,-0.0955
S54V,-0.108,-1.29
R51F,0.269,0.664
R51Y,0.343,-0.174
R51C,0.374,-0.169
R51L,0.0529,-0.247
R51P,0.212,
R51E,-0.316,-0.168
R51N,-0.079,1.03
R51A,0.176,-0.204
R51S,0.00287,-0.516
R51M,-0.235,
R51T,0.0589,0.546
R51V,-0.873,-0.419
R51G,0.508,-0.712

Variant,scaled log2 fold change [1],scaled log2 fold change [2]
R51W,0.239,1.75
R51Q,-1.02,-0.603
R51D,-0.0949,-0.181
R51K,-0.103,-1.33
R51H,-0.0671,-0.14
L53G,-0.239,-1.17
L53V,0.281,-0.11
L53A,0.205,0.346
L53W,0.155,0.498
L53H,0.262,-0.0475
L53D,-0.0291,
L53T,0.163,-0.488
L53N,0.146,
L53Q,-0.164,
L53C,0.0732,-0.0888
L53P,0.118,
L53I,-1.25,
L53K,0.299,0.00452
L53M,0.133,0.406
L53E,0.206,-0.803
L53Y,-0.194,-0.569
L53F,0.298,-0.0243
L53S,-0.175,0.73
L53R,0.0529,-0.455
